In the supplement of paper PMC10065799, “High-throughput profiling of sequence recognition by tyrosine kinases and SH2 domains using bacterial peptide display” (eLife, 2023):

Columns and labels:
[1] = target: Jak2 (UniProt O60674); experiment: phosphorylation enrichment, bacterial display (enrichment ratio); higher = better substrate or ligand; peptides without Tyr show the background
[2] = target: Fes (UniProt P07332); experiment: as above
[3] = tested on: Fer (mouse); experiment: as above
[4] = target: MERTK (UniProt Q12866); experiment: as above
[5] = tested on: AncSZ; experiment: as above
[6] = target: EPHB2 (UniProt P29323); experiment: as above
[7] = tested on: c-Abl (mouse); experiment: as above
[8] = target: EPHB1 (UniProt P54762); experiment: as above
[9] = target: FGFR1 (UniProt P11362); experiment: as above
[10] = target: Fyn (UniProt P06241); experiment: as above
[11] = tested on: c-Src; experiment: as above
[12] = target: FGFR3 (UniProt P22607); experiment: as above
[13] = target: Hck (UniProt P08631); experiment: as above
[14] = target: SHP2-C SH2; experiment: SH2 binding enrichment of the phosphorylated peptide, bacterial display (enrichment ratio); higher = better substrate or ligand; peptides without Tyr show the background
[15] = target: c-Src SH2; experiment: as above
[16] = target: Grb2 SH2 (UniProt P62993); experiment: as above
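Throughout, for SH2 binding enrichment of the phosphorylated peptide, bacterial display: peptide library displayed on the E. coli surface as eCPX fusions, selected cells deep-sequenced, score is each peptide's frequency after selection divided by its frequency in the input.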
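Throughout, for phosphorylation enrichment, bacterial display: 11-residue human phosphosite peptides and single-mutation variants displayed on the E. coli surface, counted by deep sequencing, each peptide's frequency after selection divided by its frequency in the unselected input library; frequency after pTyr selection over input frequency; kinase dosed for 20-30% of maximal phosphorylation in three min.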

FGFR3, sequence (P22607 whole entry, looked up): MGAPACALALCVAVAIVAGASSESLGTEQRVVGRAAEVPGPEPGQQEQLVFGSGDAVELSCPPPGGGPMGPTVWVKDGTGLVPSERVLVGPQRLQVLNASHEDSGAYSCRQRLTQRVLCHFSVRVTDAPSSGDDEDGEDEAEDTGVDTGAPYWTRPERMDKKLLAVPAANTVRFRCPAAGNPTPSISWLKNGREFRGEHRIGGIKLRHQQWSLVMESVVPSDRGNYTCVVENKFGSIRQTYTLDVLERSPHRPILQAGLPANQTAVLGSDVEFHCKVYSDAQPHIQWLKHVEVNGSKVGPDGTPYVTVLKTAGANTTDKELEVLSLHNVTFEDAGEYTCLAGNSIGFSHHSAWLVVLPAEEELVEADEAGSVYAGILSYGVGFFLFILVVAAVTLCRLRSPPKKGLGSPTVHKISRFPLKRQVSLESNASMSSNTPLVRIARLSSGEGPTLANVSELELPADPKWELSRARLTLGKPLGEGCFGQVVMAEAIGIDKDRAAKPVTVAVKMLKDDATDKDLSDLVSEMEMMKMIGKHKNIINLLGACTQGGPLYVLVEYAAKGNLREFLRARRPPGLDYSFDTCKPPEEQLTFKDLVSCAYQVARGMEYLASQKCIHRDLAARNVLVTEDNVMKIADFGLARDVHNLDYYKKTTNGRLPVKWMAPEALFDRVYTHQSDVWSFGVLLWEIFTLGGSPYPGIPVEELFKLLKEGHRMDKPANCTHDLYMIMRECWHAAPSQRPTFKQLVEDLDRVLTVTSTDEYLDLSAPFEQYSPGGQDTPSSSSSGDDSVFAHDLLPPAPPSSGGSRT
Jak2, sequence (O60674 whole entry, looked up): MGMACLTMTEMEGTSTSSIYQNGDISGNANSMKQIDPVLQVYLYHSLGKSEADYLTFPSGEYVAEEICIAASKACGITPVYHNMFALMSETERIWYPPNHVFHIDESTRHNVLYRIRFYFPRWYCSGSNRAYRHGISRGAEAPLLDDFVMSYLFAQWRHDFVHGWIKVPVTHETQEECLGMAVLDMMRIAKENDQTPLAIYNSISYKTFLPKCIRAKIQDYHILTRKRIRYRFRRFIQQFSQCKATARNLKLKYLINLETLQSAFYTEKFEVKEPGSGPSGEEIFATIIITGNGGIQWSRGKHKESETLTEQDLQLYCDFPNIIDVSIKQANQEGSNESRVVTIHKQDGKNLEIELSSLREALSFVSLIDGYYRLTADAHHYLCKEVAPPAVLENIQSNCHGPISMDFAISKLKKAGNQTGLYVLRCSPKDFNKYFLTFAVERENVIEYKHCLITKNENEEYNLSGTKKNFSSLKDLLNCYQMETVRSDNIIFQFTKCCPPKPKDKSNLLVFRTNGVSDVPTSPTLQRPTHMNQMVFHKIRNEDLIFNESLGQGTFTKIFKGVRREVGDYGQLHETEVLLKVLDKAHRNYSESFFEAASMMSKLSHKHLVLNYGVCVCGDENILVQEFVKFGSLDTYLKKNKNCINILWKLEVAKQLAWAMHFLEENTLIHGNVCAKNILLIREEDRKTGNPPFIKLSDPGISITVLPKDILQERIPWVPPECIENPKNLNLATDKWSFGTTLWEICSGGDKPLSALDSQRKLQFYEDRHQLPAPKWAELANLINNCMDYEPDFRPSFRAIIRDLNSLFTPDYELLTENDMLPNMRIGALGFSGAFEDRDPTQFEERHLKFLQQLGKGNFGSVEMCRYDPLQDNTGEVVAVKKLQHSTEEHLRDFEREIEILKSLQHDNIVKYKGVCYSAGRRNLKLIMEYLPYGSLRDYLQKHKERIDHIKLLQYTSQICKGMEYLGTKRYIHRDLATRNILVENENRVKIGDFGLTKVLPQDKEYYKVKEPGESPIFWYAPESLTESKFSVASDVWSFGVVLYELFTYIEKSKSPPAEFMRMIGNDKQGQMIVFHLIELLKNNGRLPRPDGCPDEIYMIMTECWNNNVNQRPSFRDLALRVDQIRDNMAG
FGFR1, sequence (P11362 whole entry, looked up): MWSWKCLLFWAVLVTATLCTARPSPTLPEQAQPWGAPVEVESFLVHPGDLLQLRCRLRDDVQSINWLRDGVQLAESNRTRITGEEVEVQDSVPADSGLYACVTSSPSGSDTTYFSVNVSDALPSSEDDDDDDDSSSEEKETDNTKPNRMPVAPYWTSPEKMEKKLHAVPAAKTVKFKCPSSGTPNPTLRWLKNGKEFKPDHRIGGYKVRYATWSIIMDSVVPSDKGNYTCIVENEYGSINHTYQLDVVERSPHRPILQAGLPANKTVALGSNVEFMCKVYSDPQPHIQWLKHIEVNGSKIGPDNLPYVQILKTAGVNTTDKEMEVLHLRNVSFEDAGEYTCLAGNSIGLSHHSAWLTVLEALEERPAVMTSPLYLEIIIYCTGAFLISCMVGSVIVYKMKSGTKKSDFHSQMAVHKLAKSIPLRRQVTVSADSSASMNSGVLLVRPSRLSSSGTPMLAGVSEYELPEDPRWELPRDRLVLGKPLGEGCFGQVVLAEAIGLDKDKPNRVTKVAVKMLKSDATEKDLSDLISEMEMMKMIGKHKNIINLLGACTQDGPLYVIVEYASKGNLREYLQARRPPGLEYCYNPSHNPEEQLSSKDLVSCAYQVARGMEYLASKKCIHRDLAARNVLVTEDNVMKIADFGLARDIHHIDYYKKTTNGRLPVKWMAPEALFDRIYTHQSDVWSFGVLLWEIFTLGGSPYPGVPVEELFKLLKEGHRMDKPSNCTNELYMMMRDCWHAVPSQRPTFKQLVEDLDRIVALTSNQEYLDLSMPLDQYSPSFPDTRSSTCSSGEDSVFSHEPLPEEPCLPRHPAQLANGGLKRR
Fes, sequence (P07332 whole entry, looked up): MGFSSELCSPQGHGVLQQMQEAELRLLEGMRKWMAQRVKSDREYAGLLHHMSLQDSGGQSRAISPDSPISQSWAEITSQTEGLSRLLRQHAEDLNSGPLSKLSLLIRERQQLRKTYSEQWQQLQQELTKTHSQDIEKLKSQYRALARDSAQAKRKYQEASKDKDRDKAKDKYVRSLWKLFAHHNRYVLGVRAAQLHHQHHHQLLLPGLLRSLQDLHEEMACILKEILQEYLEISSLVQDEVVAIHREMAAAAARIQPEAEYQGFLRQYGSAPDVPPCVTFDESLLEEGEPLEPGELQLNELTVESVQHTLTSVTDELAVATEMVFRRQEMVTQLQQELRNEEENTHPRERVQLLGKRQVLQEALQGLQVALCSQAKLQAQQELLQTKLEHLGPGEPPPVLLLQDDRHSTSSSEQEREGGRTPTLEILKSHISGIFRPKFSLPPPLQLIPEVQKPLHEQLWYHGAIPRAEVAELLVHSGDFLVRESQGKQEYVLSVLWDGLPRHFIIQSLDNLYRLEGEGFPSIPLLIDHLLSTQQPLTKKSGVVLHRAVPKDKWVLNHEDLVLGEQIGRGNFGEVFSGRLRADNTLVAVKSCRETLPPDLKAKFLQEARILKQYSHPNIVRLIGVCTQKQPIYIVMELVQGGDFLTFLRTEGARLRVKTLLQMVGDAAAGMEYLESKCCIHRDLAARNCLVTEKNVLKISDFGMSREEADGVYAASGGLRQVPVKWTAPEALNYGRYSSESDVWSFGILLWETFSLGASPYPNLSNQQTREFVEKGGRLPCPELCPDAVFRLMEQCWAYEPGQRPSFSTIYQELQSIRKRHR
EPHB1, sequence (P54762 whole entry, looked up): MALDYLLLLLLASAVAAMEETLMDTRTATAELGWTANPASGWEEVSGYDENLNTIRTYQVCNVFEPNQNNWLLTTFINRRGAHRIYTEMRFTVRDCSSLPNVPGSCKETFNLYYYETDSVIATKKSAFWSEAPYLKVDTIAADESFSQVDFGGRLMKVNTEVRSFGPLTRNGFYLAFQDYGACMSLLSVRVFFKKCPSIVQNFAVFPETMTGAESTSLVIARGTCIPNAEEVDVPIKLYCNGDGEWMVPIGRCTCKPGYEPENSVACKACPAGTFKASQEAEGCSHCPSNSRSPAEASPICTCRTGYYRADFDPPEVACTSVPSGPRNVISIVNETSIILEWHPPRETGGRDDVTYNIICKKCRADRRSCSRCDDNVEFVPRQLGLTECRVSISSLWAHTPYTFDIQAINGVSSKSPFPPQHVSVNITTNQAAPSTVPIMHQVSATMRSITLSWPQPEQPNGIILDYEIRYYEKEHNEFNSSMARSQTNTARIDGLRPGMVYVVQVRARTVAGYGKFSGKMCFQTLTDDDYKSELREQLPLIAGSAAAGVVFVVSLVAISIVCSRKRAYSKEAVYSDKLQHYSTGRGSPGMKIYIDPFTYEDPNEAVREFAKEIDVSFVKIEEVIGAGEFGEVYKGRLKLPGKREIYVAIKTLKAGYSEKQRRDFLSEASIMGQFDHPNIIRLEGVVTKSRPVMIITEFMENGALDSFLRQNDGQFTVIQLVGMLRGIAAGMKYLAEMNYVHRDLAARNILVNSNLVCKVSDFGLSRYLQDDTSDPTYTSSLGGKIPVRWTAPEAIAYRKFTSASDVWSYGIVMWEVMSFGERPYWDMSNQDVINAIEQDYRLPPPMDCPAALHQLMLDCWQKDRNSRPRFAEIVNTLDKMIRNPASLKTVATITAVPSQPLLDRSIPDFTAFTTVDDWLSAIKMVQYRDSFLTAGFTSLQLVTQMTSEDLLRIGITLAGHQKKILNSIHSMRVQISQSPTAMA
Hck, sequence (P08631 whole entry, looked up): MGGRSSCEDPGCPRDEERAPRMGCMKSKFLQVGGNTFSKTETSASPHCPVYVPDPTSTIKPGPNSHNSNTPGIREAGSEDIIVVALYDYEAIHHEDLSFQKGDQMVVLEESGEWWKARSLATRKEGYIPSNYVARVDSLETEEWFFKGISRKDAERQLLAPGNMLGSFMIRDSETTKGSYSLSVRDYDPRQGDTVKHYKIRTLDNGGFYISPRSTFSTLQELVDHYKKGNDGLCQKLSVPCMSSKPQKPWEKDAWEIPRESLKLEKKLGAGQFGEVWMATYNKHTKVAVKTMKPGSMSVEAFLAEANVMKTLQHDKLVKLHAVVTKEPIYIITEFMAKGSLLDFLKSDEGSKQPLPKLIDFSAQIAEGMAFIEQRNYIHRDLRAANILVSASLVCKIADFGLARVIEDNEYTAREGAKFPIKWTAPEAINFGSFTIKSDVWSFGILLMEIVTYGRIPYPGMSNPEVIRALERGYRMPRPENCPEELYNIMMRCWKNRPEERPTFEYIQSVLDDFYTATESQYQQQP

| Sequence | SH2 binding enrichment [14] | SH2 binding enrichment [15] | SH2 binding enrichment [16] | phosphorylation enrichment [1] | phosphorylation enrichment [2] | phosphorylation enrichment [3] | phosphorylation enrichment [4] | phosphorylation enrichment [5] | phosphorylation enrichment [6] | phosphorylation enrichment [7] | phosphorylation enrichment [8] | phosphorylation enrichment [9] | phosphorylation enrichment [10] | phosphorylation enrichment [11] | phosphorylation enrichment [12] | phosphorylation enrichment [13] |
| --- | --- | --- | --- | --- | --- | --- | --- | --- | --- | --- | --- | --- | --- | --- | --- | --- |
| AKQVGYENAGT [PC_Y304] | 0.646 | 1.19 | 4.11 | 0.467 | 0.614 | 0.461 | 0.432 | 0.633 | 0.446 | 0.447 | 0.511 | 0.394 | 0.439 | 0.433 | 0.549 | 0.464 |
| RDVEQYVNNVN [PCDH19_Y1097_L1094V] | 0.541 | 0.621 | 2.37 | 0.855 | 0.93 | 0.454 | 0.522 | 0.928 | 0.594 | 1.02 | 0.545 | 0.544 | 0.577 | 0.398 | 0.701 | 0.645 |
| GHPYAYDWISI [BEST1_Y227_L224P] | 1.07 | 4.11 | 1.1 | 0.794 | 2.26 | 17.5 | 8.66 | 1.47 | 1.07 | 0.661 | 1.65 | 10.1 | 0.929 | 1.55 | 6.75 | 1.62 |
| KKLHKYNTQFQ [PIK3R1_Y452_E451K] | 1.67 | 1.24 | 1.42 | 1.55 | 0.909 | 0.503 | 0.487 | 0.577 | 0.46 | 1.06 | 0.511 | 0.496 | 0.355 | 0.416 | 1.13 | 0.425 |
| QDLFLYQTHSE [PKHD1_Y255] | 0.696 | 0.49 | 0.763 | 1.97 | 1.96 | 0.778 | 0.543 | 1.52 | 0.726 | 1.56 | 0.887 | 0.492 | 0.59 | 0.964 | 0.822 | 0.744 |

Further lines, with some results ahead:

| SH2 binding enrichment [14] | SH2 binding enrichment [15] | SH2 binding enrichment [16] | Sequence | phosphorylation enrichment [1] | phosphorylation enrichment [2] | phosphorylation enrichment [3] | phosphorylation enrichment [4] | phosphorylation enrichment [5] | phosphorylation enrichment [6] | phosphorylation enrichment [7] | phosphorylation enrichment [8] | phosphorylation enrichment [9] | phosphorylation enrichment [10] | phosphorylation enrichment [11] | phosphorylation enrichment [12] | phosphorylation enrichment [13] |
| --- | --- | --- | --- | --- | --- | --- | --- | --- | --- | --- | --- | --- | --- | --- | --- | --- |
| 0.503 | 0.273 | 0.468 | RVQKRYIFDNV [RCN1_Y115] | 0.455 | 0.442 | 0.381 | 0.422 | 0.531 | 0.472 | 0.252 | 0.291 | 0.484 | 0.319 | 0.394 | 0.619 | 0.328 |
| 1.52 | 3.08 | 0.502 | PPGRSYSPYDY [TNS1_Y793] | 1.07 | 1.38 | 1.11 | 0.653 | 1.44 | 1.07 | 0.664 | 1.12 | 0.863 | 2.82 | 3.42 | 0.855 | 1.65 |
| 0.931 | 0.799 | 1.05 | SHNELYYEEAE [VANGL1_Y344] | 1.37 | 1.27 | 1.03 | 0.58 | 1.5 | 0.733 | 0.896 | 0.736 | 1.05 | 0.544 | 0.578 | 1.15 | 0.626 |
